± gives the standard error. For some assays here: This sample holds only a part of the variants without activity.
B1: glmS ribozyme (parent)
chain: AUAAAAGCGCCAGAACUACAGAAAUGUAGUUGACGAGGAGGAGGUUUAUCGAAUUUUCGGCGGAUGCCUCCAAA

Experiments:
Conditions in all cases: with glucosamine-6-phosphate
glucosamine-6-phosphate [1] = variants of: B1; assay: self-cleavage kobs at 40 uM GlcN6P; higher = faster cleavage; RNA array
In short: (§1)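 kcat and KM were obtained from weighted Michaelis–Menten fits across concentrations of kobs values. Those came from one- or two-exponential decay fits to per-tile medians normalised to baseline and to non-cleaving reference variants. The variants were barcoded ribozymes transcribed in situ by E. coli RNA polymerase on sequenced MiSeq chips and tracked through a hybridised Cy3 probe at 37 °C, with 40 μM to 10 mM glucosamine-6-phosphate in HEPES/KCl/Mg(OAc)2 buffer flowed in.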

glucosamine-6-phosphate [2] = variants of: B1; assay: self-cleavage kobs at 640 uM GlcN6P; higher = faster cleavage; RNA array
In short: as §1

glucosamine-6-phosphate [3] = variants of: B1; assay: self-cleavage kobs at 2500 uM GlcN6P; higher = faster cleavage; RNA array
In short: as §1

glucosamine-6-phosphate [4] = variants of: B1; assay: self-cleavage kobs at 10000 uM GlcN6P; higher = faster cleavage; RNA array
In short: as §1

glucosamine-6-phosphate [5] = variants of: B1; assay: KM; higher = weaker cofactor use; RNA array
In short: as §1

glucosamine-6-phosphate [6] = variants of: B1; assay: self-cleavage kobs at 160 uM GlcN6P; higher = faster cleavage; RNA array
In short: as §1

glucosamine-6-phosphate [7] = variants of: B1; assay: kcat; higher = faster cleavage; RNA array
In short: as §1

Row | Variant | self-cleavage kobs at 40 uM GlcN6P (glucosamine-6-phosphate [1]) [s⁻¹] | self-cleavage kobs at 640 uM GlcN6P (glucosamine-6-phosphate [2]) [s⁻¹] | self-cleavage kobs at 2500 uM GlcN6P (glucosamine-6-phosphate [3]) [s⁻¹] | self-cleavage kobs at 10000 uM GlcN6P (glucosamine-6-phosphate [4]) [s⁻¹] | KM (glucosamine-6-phosphate [5]) [µM] | self-cleavage kobs at 160 uM GlcN6P (glucosamine-6-phosphate [6]) [s⁻¹] | kcat (glucosamine-6-phosphate [7]) [s⁻¹]
1 | G7C U31A | < 1e-05 | < 1e-05 | < 1e-05 | < 1e-05 | – | – | –
2 | G38U U65G | – | – | – | – | 107 ± 46 | – | –
3 | G59C G62U | < 1e-05 | – | – | < 1e-05 | – | < 1e-05 | –
4 | G32A A48C | < 1e-05 | – | – | – | – | < 1e-05 | –
5 | G41C G63C | < 1e-05 | < 1e-05 | < 1e-05 | < 1e-05 | – | – | –
6 | A6U G7U A36G U49C C58G | < 1e-05 | < 1e-05 | < 1e-05 | < 1e-05 | – | – | –
7 | C8U A39C G41A A42C C58G A64G G66A | < 1e-05 | – | – | < 1e-05 | – | – | –
8 | G32U A52G C68G | 0.000277 ± 9.2e-05 | – | – | 0.000398 ± 9.5e-05 | – | – | –
9 | G35C G40U A64U | < 1e-05 | – | < 1e-05 | – | – | < 1e-05 | –
10 | G66A C70A | 8.27e-05 ± 1.4e-05 | 0.000708 ± 0.00013 | 0.00036 ± 8.5e-05 | 0.000947 ± 0.00015 | – | 7.28e-05 ± 2.8e-05 | –
11 | G62A G63U | – | – | – | – | 359 ± 79 | – | –
12 | C34U G51U U54C U57G | < 1e-05 | – | < 1e-05 | – | – | – | –
13 | U49A G63C U69C | < 1e-05 | – | – | – | – | – | –
14 | A14G G44A | 2.21e-05 ± 9.5e-06 | 0.000664 ± 0.00018 | 0.00104 ± 0.00021 | 0.00102 ± 0.00013 | – | 4.23e-05 ± 1.4e-05 | 0.00146 ± 0.00055
15 | C34A U56C G63A | < 1e-05 | – | – | < 1e-05 | – | – | –
16 | C50G G51U | < 1e-05 | – | – | – | – | < 1e-05 | –
17 | G35U U47A C50G C70U | 0.000411 ± 0.00012 | – | – | 0.000429 ± 0.00017 | – | – | –
18 | G7U U30A | < 1e-05 | < 1e-05 | < 1e-05 | – | – | < 1e-05 | –
19 | A12C A36U | – | – | – | – | 56.2 ± 26 | – | –
20 | G44U A52U G62C | < 1e-05 | – | < 1e-05 | – | – | < 1e-05 | –
21 | G37C C71A | – | – | – | – | – | – | 1.96e-05 ± 6.3e-06
22 | U54C U56A | 0.000356 ± 6.9e-05 | 0.00291 ± 0.00036 | 0.00483 ± 0.00092 | 0.0163 ± 0.0038 | – | 0.000584 ± 0.00011 | –
23 | A6C A12U U30A A48C | < 1e-05 | – | – | < 1e-05 | – | – | –

Row | Variant | self-cleavage kobs at 40 uM GlcN6P (glucosamine-6-phosphate [1]) [s⁻¹] | self-cleavage kobs at 640 uM GlcN6P (glucosamine-6-phosphate [2]) [s⁻¹] | self-cleavage kobs at 2500 uM GlcN6P (glucosamine-6-phosphate [3]) [s⁻¹] | self-cleavage kobs at 10000 uM GlcN6P (glucosamine-6-phosphate [4]) [s⁻¹] | KM (glucosamine-6-phosphate [5]) [µM] | self-cleavage kobs at 160 uM GlcN6P (glucosamine-6-phosphate [6]) [s⁻¹] | kcat (glucosamine-6-phosphate [7]) [s⁻¹]
24 | G37C U45A | – | 2.56e-05 ± 1.3e-05 | 4.81e-05 ± 9.9e-06 | 0.000109 ± 1.6e-05 | 5840 ± 1900 | – | 0.00017 ± 2.9e-05
25 | G38A A48U | < 1e-05 | < 1e-05 | – | < 1e-05 | – | – | –
26 | C8U G35U A39U G43U | < 1e-05 | < 1e-05 | – | – | – | – | –
27 | A39U U69C | 0.000261 ± 7.1e-05 | – | 0.0075 ± 0.0032 | 0.0107 ± 0.0039 | – | – | –
28 | A42U U65C | < 1e-05 | < 1e-05 | < 1e-05 | < 1e-05 | – | < 1e-05 | –
29 | C61G U65C G66A | < 1e-05 | – | – | < 1e-05 | – | – | –
30 | A64C C67U | – | – | – | – | 657 ± 190 | – | –
31 | G41U G43A | < 1e-05 | < 1e-05 | < 1e-05 | < 1e-05 | – | – | –
32 | U30G U47A | 0.000162 ± 3.5e-05 | – | – | 0.00566 ± 0.0013 | – | – | –
33 | U55A C68A | – | 8.04e-05 ± 2.1e-05 | 6.96e-05 ± 1.3e-05 | – | – | 6.93e-05 ± 1.2e-05 | 7.99e-05 ± 1.6e-05
34 | C10G A12C | – | – | – | 2.24e-05 ± 9.4e-06 | – | – | 3.86e-05 ± 1.4e-05
35 | C11U G59U | – | 6.88e-05 ± 6.5e-06 | 0.000155 ± 1.6e-05 | 0.00023 ± 1.9e-05 | 1920 ± 51 | – | 0.000274 ± 3.6e-06
36 | A15G G29A | 0.000133 ± 3.8e-05 | 0.00108 ± 0.00019 | 0.00164 ± 0.00031 | 0.0196 ± 0.0068 | – | 0.000309 ± 8.6e-05 | –
37 | C11G A36G C67U | < 1e-05 | – | – | – | – | – | –
38 | G9A G43A | < 1e-05 | < 1e-05 | < 1e-05 | – | – | – | –
39 | G35C U46C | < 1e-05 | < 1e-05 | < 1e-05 | – | – | – | –
40 | G60A C61A | < 1e-05 | – | – | – | – | < 1e-05 | < 1e-05
41 | A33G U55C G59A | < 1e-05 | < 1e-05 | < 1e-05 | < 1e-05 | – | – | –
42 | G44A C67U | 0.000707 ± 7e-05 | 0.00449 ± 0.0011 | 0.006 ± 0.0018 | 0.0388 ± 0.0061 | – | 0.00265 ± 0.00064 | –
43 | G41A C70G | 4.43e-05 ± 8e-06 | 0.000156 ± 1.6e-05 | 0.000332 ± 4e-05 | – | – | 6.45e-05 ± 1.1e-05 | 0.000368 ± 0.00014
44 | G41C G44U G66U | < 1e-05 | – | < 1e-05 | < 1e-05 | – | – | –
45 | A6G C10U G43C | < 1e-05 | < 1e-05 | – | – | – | – | –

Source: the supplement of paper PMC7125110
